Experimental data from the supplement of paper PMC10567573.

B1: ATL3 (parent)
chain: YGLQGGMAFLDKRLQVKEHQHEEI
B2: PBXIP1 (parent)
chain: FGEDGIFRHDRLRFRDFVDALEDS
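Also: lentivirally expressed fusions sorted by FACS into six bins by GFP to DsRed ratio, PSI derived from sequencing read proportions per bin multiplied by bin number.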

Variants of: B1
Assay: protein stability index of a GFP-peptide fusion (GPS, HEK-293T) (PSI 1-6); higher = more stable
Conditions: c terminus: a fixed tail appended
With QGLQGGMAFLDKRLQVKEHQHEEI [Y1Q] the protein stability index was 4.79. CGLQGGMAFLDKRLQVKEHQHEEI [Y1C] gave a protein stability index of 2.19. Variant MGLQGGMAFLDKRLQVKEHQHEEI [Y1M] has a protein stability index of 4.29. For FGLQGGMAFLDKRLQVKEHQHEEI [Y1F], the protein stability index was 2.51. Variant TGLQGGMAFLDKRLQVKEHQHEEI [Y1T] has a protein stability index of 4.08. HGLQGGMAFLDKRLQVKEHQHEEI [Y1H] showed a protein stability index of 3.51. With WGLQGGMAFLDKRLQVKEHQHEEI [Y1W] the protein stability index was 2.45. NGLQGGMAFLDKRLQVKEHQHEEI [Y1N] gave a protein stability index of 4.53. Work on RGLQGGMAFLDKRLQVKEHQHEEI [Y1R] yielded a protein stability index of 4.07. For LGLQGGMAFLDKRLQVKEHQHEEI [Y1L], the protein stability index was 3.38. With SGLQGGMAFLDKRLQVKEHQHEEI [Y1S] the protein stability index was 4.46. Variant PGLQGGMAFLDKRLQVKEHQHEEI [Y1P] has a protein stability index of 4.22. For EGLQGGMAFLDKRLQVKEHQHEEI [Y1E], the protein stability index was 4.35. KGLQGGMAFLDKRLQVKEHQHEEI [Y1K] showed a protein stability index of 4.26. DGLQGGMAFLDKRLQVKEHQHEEI [Y1D] gave a protein stability index of 5.03. In the case of AGLQGGMAFLDKRLQVKEHQHEEI [Y1A], the protein stability index is reported as 4.57. For GGLQGGMAFLDKRLQVKEHQHEEI [Y1G], the protein stability index was 4.73. For IGLQGGMAFLDKRLQVKEHQHEEI [Y1I], the protein stability index was 4.07. Work on VGLQGGMAFLDKRLQVKEHQHEEI [Y1V] yielded a protein stability index of 3.92. For YALQGGMAFLDKRLQVKEHQHEEI [G2A], the protein stability index was 2.28. For YDLQGGMAFLDKRLQVKEHQHEEI [G2D], the protein stability index was 3.52. YCLQGGMAFLDKRLQVKEHQHEEI [G2C] gave a protein stability index of 1.82.

Variants of: B2
Assay: as above
Conditions: c terminus: a fixed tail appended
With FGEDGIFRHDRLRFRDFVDACEDS [L21C] the protein stability index was 3.48. In the case of FGEDGIFRHDRLRFRDFVDAAEDS [L21A], the protein stability index is reported as 3.32. For FGEDGIFRHDRLRFRDFVDAKEDS [L21K], the protein stability index was 3.3. FGEDGIFRHDRLRFRDFVDAFEDS [L21F] showed a protein stability index of 2.73. FGEDGIFRHDRLRFRDFVDAHEDS [L21H] gave a protein stability index of 3. FGEDGIFRHDRLRFRDFVDANEDS [L21N] gave a protein stability index of 3.73. With FGEDGIFRHDRLRFRDFVDAVEDS [L21V] the protein stability index was 2.94. Variant FGEDGIFRHDRLRFRDFVDAIEDS [L21I] has a protein stability index of 3.07. Work on FGEDGIFRHDRLRFRDFVDASEDS [L21S] yielded a protein stability index of 3.24. For FGEDGIFRHDRLRFRDFVDAMEDS [L21M], the protein stability index was 3.12. FGEDGIFRHDRLRFRDFVDAEEDS [L21E] gave a protein stability index of 3.67. Work on FGEDGIFRHDRLRFRDFVDAREDS [L21R] yielded a protein stability index of 3.01. FGEDGIFRHDRLRFRDFVDADEDS [L21D] gave a protein stability index of 3.68. With FGEDGIFRHDRLRFRDFVDAYEDS [L21Y] the protein stability index was 3.18. FGEDGIFRHDRLRFRDFVDAQEDS [L21Q] showed a protein stability index of 3.57. For FGEDGIFRHDRLRFRDFVDAWEDS [L21W], the protein stability index was 2.57. With FGEDGIFRHDRLRFRDFVDAGEDS [L21G] the protein stability index was 2.97. In the case of FGEDGIFRHDRLRFRDFVDATEDS [L21T], the protein stability index is reported as 3.13. Variant FGEDGIFRHDRLRFRDFVDAPEDS [L21P] has a protein stability index of 3.65. With FGEDGIFRHDRLRFRDFVDFLEDS [A20F] the protein stability index was 2.38. FGEDGIFRHDRLRFRDFVDQLEDS [A20Q] showed a protein stability index of 2.95. With FGEDGIFRHDRLRFRDFVDMLEDS [A20M] the protein stability index was 2.13. For FGEDGIFRHDRLRFRDFVDHLEDS [A20H], the protein stability index was 2.42. With FGEDGIFRHDRLRFRDFVDPLEDS [A20P] the protein stability index was 3.06. FGEDGIFRHDRLRFRDFVDVLEDS [A20V] showed a protein stability index of 2.49. In the case of FGEDGIFRHDRLRFRDFVDLLEDS [A20L], the protein stability index is reported as 2.09. Work on FGEDGIFRHDRLRFRDFVDTLEDS [A20T] yielded a protein stability index of 2.21. FGEDGIFRHDRLRFRDFVDILEDS [A20I] gave a protein stability index of 2.28. FGEDGIFRHDRLRFRDFVDGLEDS [A20G] showed a protein stability index of 3.41. FGEDGIFRHDRLRFRDFVDYLEDS [A20Y] showed a protein stability index of 2.11. For FGEDGIFRHDRLRFRDFVDCLEDS [A20C], the protein stability index was 3.05. In the case of FGEDGIFRHDRLRFRDFVDWLEDS [A20W], the protein stability index is reported as 2.46. Work on FGEDGIFRHDRLRFRDFVDRLEDS [A20R] yielded a protein stability index of 3.01. In the case of FGEDGIFRHDRLRFRDFVDSLEDS [A20S], the protein stability index is reported as 3.18. FGEDGIFRHDRLRFRDFVDELEDS [A20E] gave a protein stability index of 3.25. FGEDGIFRHDRLRFRDFVDKLEDS [A20K] gave a protein stability index of 3.6. With FGEDGIFRHDRLRFRDFVDNLEDS [A20N] the protein stability index was 2.78. In the case of FGEDGIFRHDRLRFRDFVDDLEDS [A20D], the protein stability index is reported as 3.23. Work on FGEDGIFRHDRLRFRDFVDALWDS [E22W] yielded a protein stability index of 1.97. FGEDGIFRHDRLRFRDFVDALQDS [E22Q] gave a protein stability index of 2.24. Variant FGEDGIFRHDRLRFRDFVDALADS [E22A] has a protein stability index of 2. Work on FGEDGIFRHDRLRFRDFVDALFDS [E22F] yielded a protein stability index of 1.65. In the case of FGEDGIFRHDRLRFRDFVDALIDS [E22I], the protein stability index is reported as 1.76. FGEDGIFRHDRLRFRDFVDALNDS [E22N] showed a protein stability index of 2.56. Variant FGEDGIFRHDRLRFRDFVDALPDS [E22P] has a protein stability index of 2.81. Variant FGEDGIFRHDRLRFRDFVDALLDS [E22L] has a protein stability index of 2.97. For FGEDGIFRHDRLRFRDFVDALKDS [E22K], the protein stability index was 2.08. In the case of FGEDGIFRHDRLRFRDFVDALDDS [E22D], the protein stability index is reported as 2.26. Work on FGEDGIFRHDRLRFRDFVDALGDS [E22G] yielded a protein stability index of 2.05. Variant FGEDGIFRHDRLRFRDFVDALCDS [E22C] has a protein stability index of 1.93. FGEDGIFRHDRLRFRDFVDALTDS [E22T] showed a protein stability index of 2.08. FGEDGIFRHDRLRFRDFVDALRDS [E22R] showed a protein stability index of 2.38. Work on FGEDGIFRHDRLRFRDFVDALMDS [E22M] yielded a protein stability index of 1.89. In the case of FGEDGIFRHDRLRFRDFVDALYDS [E22Y], the protein stability index is reported as 2.11. In the case of FGEDGIFRHDRLRFRDFVDALVDS [E22V], the protein stability index is reported as 2.2. FGEDGIFRHDRLRFRDFVDALHDS [E22H] showed a protein stability index of 2.37. FGEDGIFRHDRLRFRDFVDALSDS [E22S] gave a protein stability index of 2.71. FGEDGIFRHDRLRFRRFVDALEDS [D16R] gave a protein stability index of 2.36. Variant FGEDGIFRHDRLRFRKFVDALEDS [D16K] has a protein stability index of 1.99. For FGEDGIFRHDRLRFRSFVDALEDS [D16S], the protein stability index was 2.23. FGEDGIFRHDRLRFRVFVDALEDS [D16V] showed a protein stability index of 2.43. With FGEDGIFRHDRLRFRTFVDALEDS [D16T] the protein stability index was 2.08. FGEDGIFRHDRLRFRWFVDALEDS [D16W] showed a protein stability index of 1.85. With FGEDGIFRHDRLRFRYFVDALEDS [D16Y] the protein stability index was 1.88. With FGEDGIFRHDRLRFRNFVDALEDS [D16N] the protein stability index was 1.89. For FGEDGIFRHDRLRFRLFVDALEDS [D16L], the protein stability index was 1.55. Variant FGEDGIFRHDRLRFRHFVDALEDS [D16H] has a protein stability index of 2.09. FGEDGIFRHDRLRFRIFVDALEDS [D16I] showed a protein stability index of 2.06. With FGEDGIFRHDRLRFRMFVDALEDS [D16M] the protein stability index was 1.78. FGEDGIFRHDRLRFRPFVDALEDS [D16P] gave a protein stability index of 2.27. FGEDGIFRHDRLRFRQFVDALEDS [D16Q] gave a protein stability index of 2.42. Variant FGEDGIFRHDRLRFRDFVVALEDS [D19V] has a protein stability index of 1.91.
